This note sets out measurements from patent US20250154231A1 (RQBIO COVID, published 2025).

The chains are these.
B1: Omi39 (antibody, V domains shown)
VH: QVQLVESGGVVVQPGGSLRLSCAASGFSFDDYSMHWVRQAPGKGLEWVSVIYWDGVSKYYADSVKGRFTISRDNSKNSLYLQMNSLRTEDTAVYYCAKDSEDCSSTSCYMDVWGKGTTVTVSS
VL: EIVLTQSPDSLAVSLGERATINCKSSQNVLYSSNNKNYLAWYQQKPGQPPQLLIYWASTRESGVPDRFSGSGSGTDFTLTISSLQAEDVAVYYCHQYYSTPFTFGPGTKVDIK
B2: Omi42 (antibody, V domains shown)
VH: EVQLLETGGGLVQPGRSLRLSCAASGFPFDDYAIHWVRLAPGKGLEWVSSISWDSGSIGYADSVKGRFTISRDNAKNSLYLQMNSLRAEDTALYYCAKGAFPGYSSGWYYGLDVWGQGATVTVSS
VL: QSVVTQPPSASGSLGQSVTISCTGTSSDVGGYNYVSWYQQHPGKAPKLMIFEVSKRPSGVPDRFSGSKSGNTASLTVSGLQAEDEADYYCSSYAGNKGVFGGGTKLTVL
B3: Omi08 (antibody, V domains shown)
VH: EVQLVESGAEVKRPGASVKVSCKASGYTFTNYFMHWVRQAPGQGLEWMGVINPSDGGASYPQKFQGRVTMTRDTSTSTVYMDLSSLRSEDTAVYSCARGAFDVSGSWYVPFDYWGQGTLVTVSS
VL: QSVVTQPPSVSGAPGQRVTISCTGSSSNIGAGYDVHWYQQLPGAAPKLLIYGNTNRPSGVPDRFSGSKSGTSASLAITGLQAEDEADYYCQSYDITLSGSGYVFGTGTKVTVL
B4: Omi12 (antibody, V domains shown)
VH: EVQLVESGPEVKKPGTSVKVSCKASGFSFSMSAMQWVRRARGQRLEWIGWIVPGSGNANYAQKFQERVTITRDESTNTGYMELSSLRSEDTAVYYCAAPHCNKTNCYDAFDIWGQGTMVTVSS
VL: AIRMTQSPGTLSLSPGERATLSCRASQSVRSSYLAWYQQKPGQAPRLLIYGASTRATGIPDRFSGSGSGTDFILTINRLEPEDLAVYYCQQFGSSPWTFGQGTKVDIK
B5: Omi09 (antibody, V domains shown)
VH: QVQLVESGGGVVQPGRSLRLSCAASGFTFRTYAVHWVRQAPGKGPEWVAVISYDGSNKYYADSVKGRFTLSRDTSKNTLYLQMNSLRAEDTAVYYCASRGDTVTTGDAFDIWGQGTMVTVSS
VL: SYELTQPPSVSVSPGQTARITCSGDALPKQYTYWYQQKPGQPPVLVIYKDSERPSGIPERFSGSSSGTTVTLTISGVQAEDEADYYCQSTDSSATYPGNVVFGGGTKLTVL
B6: Omi41 (antibody, V domains shown)
VH: QVQLVQSGAEVKKPGASVKVSCKAAGYSFMNYGINWVRQAPGQGLEWMGWINTYNGNAKYAQKFQGRVTMTTDTSTSTAYMELRSLRSGDTAVYYCARDPFTGYDDVWGGDYWGQGTLVTVSS
VL: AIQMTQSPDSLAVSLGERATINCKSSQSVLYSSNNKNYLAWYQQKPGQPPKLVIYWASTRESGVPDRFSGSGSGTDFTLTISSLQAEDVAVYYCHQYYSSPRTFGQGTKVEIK
B7: Omi06 (antibody, V domains shown)
VH: EVQLLESGPGLVKPSETLSLTCTVSGGSISRYSWSWIRQPAGRGLEWIGRMYSSGGTNYNPSLESRVTMSLDTSKKQFSLKLSSVTAADTAVYYCAAASIDQVWGTYRDAFDIWGQGTMVTVSS
VL: AIRMTQSPSSLAASVGDRVTISCRAGQSISSFLHWYQQKVGKAPKLLIYDASSLQSGVPSRFSGSGSGTDFTLTISSLQPEDFAAYYCQQSYENPLTFGGGTKVDIK
B8: Omi18 (antibody, V domains shown)
VH: QVQLVESGGGLIQPGGSLRLSCAASGITVSSNYMTWVRQAPGKGLEWVSLLYAGGSAFYADSVKGRFTISRDNSKNTLYLLMNSLRVGDTAVYYCARDLQVYGMDVWGQGTTVTVSS
VL: SYELTQPPSVSVAPGQTARITCGGNNDGAKSVHWYQQKPGQAPVLVVYDDSDRPSGIPERFSGSNSGNTATLTITRIEAGDEADYYCQVWDSSRDHVFGTGTKVTVL
B9: Omi16 (antibody, V domains shown)
VH: EVQLVESGGGVVQPGGSLRLSCAASGIIVSANYMTWVRQAPGKGLEWVSVIYPGGSTFYADSVKGRFTISRDNSKNTLYLQMNSLRVEDSAVYYCARDLELAGFNDFWGQGTLVTVSS
VL: DVVMTQSPGTLALSPGERATLSCRTSQSVSSNYLAWYQQKPGQAPRLLIYGASSRATGIPDRFSGSGSGTDFTLTISRLEPEDFAVYYCQQFGSSPRYTFGQGTKVEIK
B10: Omi17 (antibody, V domains shown)
VH: QVQLVESGGGVVQPGGSLRLSCAASGVTVSSNYMSWVRQAPGKGLEWVSVLYAGGSTFYADSVKGRFTISRDNSKNTLYLQMNSLRAEDTAAYYCARDLAVAGFLDSWGQGTLVTVSS
VL: DIVMTQSPGTLSLSPGERATLSCRASQGVSSIYLAWYQQKPGQAPRLVLYGASSRATGIPDRFSGSGSGTDFTLTISRLEPEDFAVYYCQQYGSSPRYTFGQGTKVEIK

The target in this assay is SARS-CoV-1 S protein (SARS-CoV-1, UniProt P59594 14-1195). In words: ELISA. A general note: ELISA stands for enzyme-linked immunosorbent assay.
Regarding B1, the binding result was “no binding”.
With B2, the binding result is “no binding”.
As for B3, the binding result is reported as “no binding”.
The same measure for B4: “no binding”.
Regarding B5, the binding result is given as “no binding”.
Regarding B6, the binding result is “no binding”.
The result for B7 reads “no binding”; that for B8, “no binding”; that for B9, “no binding”.
The result for B10 reads “no binding”.
